Data on four molecules can be found in PMC9482650, “Quantitative fragmentomics allow affinity mapping of interactomes” (Nature Communications, 2022).

Holding throughout (assay): holdup assay
Holding throughout (set-up): key: below the threshold = too weak to quantify, mostly under pKd 3.1 to 4

For assay [1], the target named is LMO7, Q8WWI1. Particulars: plain residues with an end cap or a label only (N-terminal biotin on a linker: (peg)3).
For assay [2], the target named is T1, LNX2_1, Q8N448.
T1 sequence (Q8N448 228-328, limits assumed, looked up): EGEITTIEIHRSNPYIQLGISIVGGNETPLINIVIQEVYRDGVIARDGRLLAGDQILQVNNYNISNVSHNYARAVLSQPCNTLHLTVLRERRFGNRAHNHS

Assay [3] has as its target MAGI1_3, Q96QZ7.
For assay [4], the target named is T2, MAGI2_1, Q86UL8.
T2 sequence (Q86UL8 12-111, limits assumed, looked up): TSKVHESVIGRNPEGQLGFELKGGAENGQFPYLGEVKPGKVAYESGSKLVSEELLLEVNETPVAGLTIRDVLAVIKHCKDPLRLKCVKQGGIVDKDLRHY

Assay [5] deals with MAGI3_4, Q5TCQ9.
The target of assay [6] is MAGI3_6, Q5TCQ9.
Assay [7] has as its target T3, MPDZ_11, O75970.
T3 sequence (O75970 1720-1817, limits assumed, looked up): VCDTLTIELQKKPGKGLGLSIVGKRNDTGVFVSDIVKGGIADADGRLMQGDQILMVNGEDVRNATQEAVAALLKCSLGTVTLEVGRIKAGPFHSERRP

The target of assay [8] is T4, MPDZ_7, O75970.
T4 sequence (O75970 1146-1253, limits assumed, looked up): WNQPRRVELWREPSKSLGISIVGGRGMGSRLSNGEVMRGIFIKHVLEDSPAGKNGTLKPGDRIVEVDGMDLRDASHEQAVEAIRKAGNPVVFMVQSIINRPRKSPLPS

For assay [9], the target named is T5, MPP1, Q00013.
T5 sequence (Q00013 66-162, limits assumed, looked up): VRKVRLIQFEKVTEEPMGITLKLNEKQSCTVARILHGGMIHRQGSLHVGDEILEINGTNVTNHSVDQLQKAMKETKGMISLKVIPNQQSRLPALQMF

Assay [10] has as its target T6, NHERF1_1, O14745.
T6 sequence (O14745 9-104, limits assumed, looked up): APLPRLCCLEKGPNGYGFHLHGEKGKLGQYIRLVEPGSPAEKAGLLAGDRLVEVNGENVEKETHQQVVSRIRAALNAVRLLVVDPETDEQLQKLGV

For assay [11], the target named is PARD3B_3, Q8TEW8.
The target in assay [12] is T7, PARD6G, Q9BYG4.
T7 sequence (Q9BYG4 153-261, limits assumed, looked up): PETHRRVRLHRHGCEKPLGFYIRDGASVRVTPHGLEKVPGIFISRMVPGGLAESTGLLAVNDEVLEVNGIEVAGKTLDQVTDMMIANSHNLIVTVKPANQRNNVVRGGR
Particulars: plain residues with an end cap or a label only (N-terminal biotin on a linker: (peg)3).

Assay [13] has as its target T8, PDZD2_1, O15018.
T8 sequence (O15018 80-192, limits assumed, looked up): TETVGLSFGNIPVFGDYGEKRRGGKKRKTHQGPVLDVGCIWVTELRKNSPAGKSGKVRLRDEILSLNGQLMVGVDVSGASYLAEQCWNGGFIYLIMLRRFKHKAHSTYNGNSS

Assay [14] has as its target T9, PDZD2_4, O15018.
T9 sequence (O15018 723-823, limits assumed, looked up): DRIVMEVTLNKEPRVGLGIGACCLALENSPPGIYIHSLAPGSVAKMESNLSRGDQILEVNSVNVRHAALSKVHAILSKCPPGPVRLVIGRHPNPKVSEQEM

For assay [15], the target named is T10, PDZD2_6, O15018.
T10 sequence (O15018 2745-2839, limits assumed, looked up): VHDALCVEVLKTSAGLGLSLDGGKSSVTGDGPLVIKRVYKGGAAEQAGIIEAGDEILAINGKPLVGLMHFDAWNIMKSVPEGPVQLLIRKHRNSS

The target in assay [16] is PTPN13_2, Q12923.
For assay [17], the target named is T11, SHROOM3, Q8TF72.
T11 sequence (Q8TF72 20-120, limits assumed, looked up): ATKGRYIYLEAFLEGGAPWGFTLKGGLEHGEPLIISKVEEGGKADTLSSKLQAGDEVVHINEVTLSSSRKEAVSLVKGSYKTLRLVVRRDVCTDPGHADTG

Assay [18] deals with T12, SYNPO2L, Q9H987.
T12 sequence (Q9H987 1-98, limits assumed, looked up): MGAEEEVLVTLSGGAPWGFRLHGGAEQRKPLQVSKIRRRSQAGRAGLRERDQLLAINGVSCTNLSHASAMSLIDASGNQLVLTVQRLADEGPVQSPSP

Assay [19] deals with T13, USH1C_3, Q9Y6N9.
T13 sequence (Q9Y6N9 447-547, limits assumed, looked up): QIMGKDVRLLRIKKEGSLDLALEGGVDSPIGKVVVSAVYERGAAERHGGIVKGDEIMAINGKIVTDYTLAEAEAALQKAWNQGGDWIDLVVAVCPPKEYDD

Assay [20] has as its target GIPC3, Q8TF64. Particulars: plain residues with an end cap or a label only (N-terminal biotin on a linker: (peg)3).
Assay [21] deals with GRIP2_2, Q9C0E4. The note with it: plain residues with an end cap or a label only (N-terminal biotin on a linker: (peg)3).
The target in assay [22] is MAGI1_4, Q96QZ7. The note with it: plain residues with an end cap or a label only (N-terminal biotin on a linker: (peg)3).
Assay [23] deals with Q8IUC4. Particulars: plain residues with an end cap or a label only (N-terminal biotin on a linker: (peg)3).
Setting [24] is: plain residues with an end cap or a label only (N-terminal biotin on a linker: (peg)3).
Where [25] appears, read: modified: phospho on T at position -2 from the C-terminal residue.

Chain of PARD3B_3, Q8TEW8 (Q8TEW8 490-594): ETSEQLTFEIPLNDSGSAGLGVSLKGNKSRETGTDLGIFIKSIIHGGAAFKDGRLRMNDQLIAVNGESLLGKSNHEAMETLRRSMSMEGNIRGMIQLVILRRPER
Chain of PTPN13_2, Q12923 (Q12923 1363-1462): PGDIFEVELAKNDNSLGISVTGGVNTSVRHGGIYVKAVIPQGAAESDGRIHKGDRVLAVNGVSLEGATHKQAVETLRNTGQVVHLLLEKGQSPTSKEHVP
Chain of MAGI1_3, Q96QZ7 (Q96QZ7 638-725): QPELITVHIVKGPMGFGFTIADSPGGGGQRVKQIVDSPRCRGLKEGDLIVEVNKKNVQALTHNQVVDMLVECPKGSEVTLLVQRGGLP
Chain of MAGI3_6, Q5TCQ9 (Q5TCQ9 1014-1103): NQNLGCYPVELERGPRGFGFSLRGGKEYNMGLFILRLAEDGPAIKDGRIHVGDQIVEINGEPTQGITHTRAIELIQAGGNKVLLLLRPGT
Chain of MAGI3_4, Q5TCQ9 (Q5TCQ9 716-815): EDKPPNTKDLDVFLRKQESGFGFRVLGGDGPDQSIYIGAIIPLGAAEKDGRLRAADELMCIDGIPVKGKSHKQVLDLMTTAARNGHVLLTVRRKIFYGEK
Chain of GRIP2_2, Q9C0E4 (Q9C0E4 137-245): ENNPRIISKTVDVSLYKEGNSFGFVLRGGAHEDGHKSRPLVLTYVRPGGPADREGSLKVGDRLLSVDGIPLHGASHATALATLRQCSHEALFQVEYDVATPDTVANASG
Chain of MAGI1_4, Q96QZ7 (Q96QZ7 other isoform, or with tags, fused parts or gaps): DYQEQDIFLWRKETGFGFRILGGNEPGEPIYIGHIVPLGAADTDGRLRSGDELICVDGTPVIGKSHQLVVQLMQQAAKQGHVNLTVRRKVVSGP
Chain of LMO7, Q8WWI1 (Q8WWI1 1037-1138): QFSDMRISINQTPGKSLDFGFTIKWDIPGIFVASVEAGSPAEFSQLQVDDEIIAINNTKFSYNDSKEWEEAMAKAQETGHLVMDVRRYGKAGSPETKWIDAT
Chain of GIPC3, Q8TF64 (Q8TF64 107-202): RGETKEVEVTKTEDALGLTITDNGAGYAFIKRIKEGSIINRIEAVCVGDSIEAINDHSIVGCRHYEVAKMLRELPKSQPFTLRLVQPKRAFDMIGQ

B1: WNV-NS5, Q9Q6P4 (peptide)
chain: RYEDTTLVEDTVL
As a reminder, the pKd is the negative decadic logarithm of the Kd, by convention in mol/L. On to B1, for which the pKd entry in assay [1], in assay [2] (setting [24]), in [3] (setting [24]), in assay [4] (setting [24]), in assay [5] (setting [24]) and in [6] (setting [24]) was “below the threshold” in each case. Besides, the pKd result was “below the threshold” in assay [7] (setting [24]); “below the threshold” in assay [8] (setting [24]); “below the threshold” in assay [9] (setting [24]); 5.14 in [10] (setting [24]); 4.05 in assay [11] (setting [24]); “below the threshold” in [12]. Besides, the pKd entry in assay [13] (setting [24]), in assay [14] (setting [24]), in [15] (setting [24]), in assay [16] (setting [24]), in assay [17] (setting [24]) and in assay [18] (setting [24]) was “below the threshold” each time. In addition, in assay [19] (setting [24]), the pKd result is recorded as “below the threshold”.

B2: HPV16-E6_-2P, P03126 (peptide)
chain: SSRTRRETQL
On to B2, for which the pKd result in [2] (setting [25]), in assay [3] (setting [25]), in assay [4] (setting [25]), in assay [5] (setting [25]), in assay [6] (setting [25]) and in [7] (setting [25]) was “below the threshold” in each case. Moreover, the pKd entry in [8] (setting [25]), in [9] (setting [25]), in [10] (setting [25]), in assay [11] (setting [25]), in [13] (setting [25]) and in assay [14] (setting [25]) was “below the threshold” each time. For the same molecule, the pKd result in assay [15] (setting [25]), in assay [16] (setting [25]), in assay [17] (setting [25]), in assay [18] (setting [25]) and in assay [19] (setting [25]) was “below the threshold” in each case.

B3: SARS-Cov2-N, P0DTC9 (peptide)
chain: QQSMSSADSTQA
Turning to B3, the pKd entry in assay [20], in assay [21], in [1], in assay [2] (setting [24]), in assay [3] (setting [24]) and in [22] was “below the threshold” each time. Moreover, the pKd result in [4] (setting [24]), in [5] (setting [24]), in assay [6] (setting [24]), in [7] (setting [24]), in assay [8] (setting [24]) and in [9] (setting [24]) was “below the threshold” in each case. Further, the pKd entry in assay [10] (setting [24]), in [11] (setting [24]), in assay [12], in assay [13] (setting [24]), in assay [14] (setting [24]) and in assay [15] (setting [24]) was “below the threshold” each time. Also, the pKd entry in assay [16] (setting [24]), in [23], in assay [17] (setting [24]), in [18] (setting [24]) and in assay [19] (setting [24]) was “below the threshold” each time.

B4: HBV-HBc, P03193 (peptide)
chain: RRRRSQSRESQC
With B4, the pKd result in assay [20], in assay [21], in assay [2] (setting [24]), in assay [3] (setting [24]), in assay [22] and in [4] (setting [24]) was “below the threshold” in each case. In addition, the pKd result in assay [5] (setting [24]), in assay [6] (setting [24]), in [7] (setting [24]), in assay [8] (setting [24]), in [9] (setting [24]) and in [10] (setting [24]) was “below the threshold” throughout. Moreover, the pKd entry was “below the threshold” in assay [11] (setting [24]); “below the threshold” in [12]; “below the threshold” in assay [13] (setting [24]); “below the threshold” in assay [14] (setting [24]); “below the threshold” in assay [15] (setting [24]); 3.99 in assay [16] (setting [24]). The pKd entry in assay [17] (setting [24]), in assay [18] (setting [24]) and in assay [19] (setting [24]) was “below the threshold” in each case.
